In the DeepSol protein solubility set:

experiment: soluble on expression in E. coli; label from the status in PepcDB or PDB records

Row | Sequence | soluble on expression in E. coli
1 | EMGTADLGPSSVPTPTNVTIESYNMNPIVYWEYQIMPQVPVFTVEVKNYGVKNSEWIDACINISHHYCNISDHVGDPSNSLWVRVKARVGQKESAYAKSEEFAVCRDGKIGPPKLDIRKEEKQIMIDIFHPSVFVNGDEQEVDYDPETTCYIRVYNVYVRMNGSEIQYKILTQKEDDCDEIQCQLAIPVSSLNSQYCVSAEGVLHVWGVTTEKSKEVCITIFNSSIKGSLWIPVVAALLLFLVLS | soluble
2 | NCSKIHLSTKLLAVDFPAHFVKSISCQICEHILADPVETSCKHLFCRICILRCLKVMGSYCPSCRYPCFPTDLESPVKSFLNILNSLMVKCPAQDCNEEVSLEKYNHHVSSHKESK | soluble
3 | MPLSSPDRLAIAVDLGTTTLAASLLDMATGERLAVAGSLNPQREFGADVIARLDAACRSKEARHRMAELVRGAIGRLAGELLESVGRSPEHLVTIAVAGNPAMEHLLLDLPVDALAFPPYRPLFTAGKTVPAVGLGWDLPAEVFLFPLPGGFVGGDTVAFLHGVPGPRSPVPGPRLYLDMGTNGEIALAADGKLLATSAAAGPAFEGGNLSCGMAALPGAISGVTFDGERLLVSTVEGKPATGICGSGVLSAIALLLDQGAIDSTGRLLPPEEIPSSIGNRLTTMGDERAFVLHRDATRTVWLSQEDIRQVQLAKGAIRAGMEVLFDRAGIESGAVGSVVLTGSFGAVLDPHSLKSLGVFTENMVQTTSFVREGALRGVEHALLTSGGLAAVDHLAGTIRVIPLSGTPAFEKHFLQHINFPHTILEHHHHHH | soluble
4 | MGSDKIHHHHHHMKLSFEVLEALDAIDRAGTFAEAAVLIHRVPSALSYLVQKAESDLGVILFDRSGRRAQLTEAGRLLVEDGRRLLQAGRELESKVRGVHAGWEAELRLCLDEILPLPSLWPHVRAFYDMELTTRLRLSTEVLGGVWDALVTGRADIAIGAAGEPPHAPNIAARPIGLLRHVFVVAPHHPLAAVEQPLDSDTISSHRGVIISDTSRALEPRSVAIHDGQPVIIVPTLAAKLDLLCEGMAVGMLPAPVVEEAIRQGKLVERRVIGVRDHTTCYLGWREDKTGRALKWWINRLDQIDLISTLFSTRGVAA | not soluble
5 | SAEFRVRVSTGEAFGAGTWDKVSVSIVGTRGESPPLPLDNLGKEFTAGAEEDFQVTLPEDVGRVLLLRVHKAPPVLPLLGPLAPDAWFCRWFQLTPPRGGHLLFPCYQWLEGAGTLVLQEGTAKVSWADHHPVLQQQRQEELQARQEMYQWKAYNPGWPHCLDEKTVEDLELNIKYSTAKNANFYLQAGSAFAEMKIKGLLDRKGLWRSLNEMKRIFNFRRTPAAEHAFEHWQEDAFFASQFLNGLNPVLIRRCHYLPKNFPVTDAMVASVLGPGTSLQAELEKGSLFLVDHGILSGIQTNVINGKPQFSAAPMTLLYQSPGCGPLLPLAIQLSQTPGPNSPIFLPTDDKWDWLLAKTWVRNAEFSFHEALTHLLHSHLLPEVFTLATLRQLPHCHPLFKLLIPHTRYTLHINTLARELLIVPGQVVDRSTGIGIEGFSELIQRNMKQLNYSLLCLPEDIRTRGVEDIPGYYYRDDGMQIWGAVEHFVSEIIGIYYPSDESVQDDRELQAWVREIFSKGFLNQESSGIPSSLETREALVQYVTMVIFTCSAKHAAVSAGQFDSCAWMPNLPPSMQLPPPTSKGLATCEGFIATLPPVNATCDVILALWLLSKEPGDQRPLGTYPDEHFTEEAPRRSIATFQSRLAQISRGIQERNRGLVLPYTYLDPPLIENSVSI | soluble
6 | MSLTMREVAKAAGVSIKTVSNVVNDYEFVSQATRDKVNKAIAELGYTVNVSARNLRRGQTGIIGLAIPDLQMPYFAQLSSLVIEEAKKVGLRVIVEPTQYSRDGELEALHGSQQMMIDGLIYSPLELGQDDVEQLKVDYPLVLVGERIFTDQVDHIATENVEGAKRATQYLLTTGCRRVAVVGVHPGEKVGSAALRYQGYLEALEEAGVEFDDRLVVESGMWHRSDGVRAMNALLDSGVEVDGVVALNDMLASGVMHAIQMHGLHIPDDISVVGFDNSDDSQYLSPALTSIAPGLEAVARLSVKVLKERIDGRDPNADRPGEKVFRKVASSLVVRQSTEGHHHHHH | soluble
7 | MEGSVSEFLTVRLSSQKEADIPWLVWSAEQQEVIASGQVAGWEALHEIESYADQRSVVVLLAASDLILTSVEIPPGASRQLENMLPYLLEDEIAQDVEDVHFCVLSKGRETADVVGVDRLWLRACLDHLKACGFDVKRVLPDVLAIPRPEHGLAALQLGDEWLVRKSTTQGMAVDAQWLSLLAASDWVQNEGEYLPLQALTPLPELSLAETQEWRYEPSGLVMQLLTQEALTSKFNLLTGSFKLKSLEHHHHHH | soluble
8 | MGSDKIHHHHHHMTDRLFTETLLAAVGEDLLRTRLSEEFIRVDLGAETVAPLLTFDALSELLSTHQLEPPRLRLHRAGAPVPLDNYTEVGEASGVQRRLVRPEALYAQLRQGASLVLDGIDRIHPPIRAAADDLMRLVHERVQVNLYLIWGDSHGFNTHWDDHDTFIVQVAGTKHWQVHGQGTRPYPMKEDIDHSHQPPEGTVWEGTVRAGEVLHVPRGWWHTVTGTGDVSMHLTFGFTRATGVDWARWLVDRLYEVEFARRDLPRFATPEERRKHQHELLRHLMDLAEQHGLDEFLTDRDSRFPRRQSFSLPWAVDGATPQPDTVVEFTPILPSALRDEGQKVALTVAGRRYTFAKAAQPLLEVLVDARVLTVAELAERAGAEVETAAALARVLVQHHLVLLRSTS | not soluble
9 | MPLVLDLARPVSEEELRRLSELNPGYQWERSPEGRLWVSPTGGESGRRSLQLAYQLARWNEERGLGVVFDSSTGFKFPDGSILSPDAAFVERGAWEALSEAEREGFPPLAPKAVFEVRSASQDPEELRAKMGIYLRNGVLLGVLVDPYARAVEVFRPGKPPLRLEGVERVSLDPELPGFALSLPPLW | soluble
10 | EHAPATTGPLPSAPRDVVASLVSTRFIKLTWRTPASDPHGDNLTYSVFYTKEGIARERVENTSHPGEMQVTIQNLMPATVYIFRVMAQNKHGSGESSAPLRVETQPE | soluble
11 | MRLEECRKRLEELEAAREELLKVLREMRIHSTKSIALIHAGKVEEAEQELKKAIELLEKVKAYREYPEIYFYLCNDAMQELVEAIAFKNAISGEFTFEIDLEVTPAAFLNGFADAVGELRRYALTKLIEGDFKSAERMLEVMEKIYERLMEFTTFPDKLVSGLRKKLDVARGGIERTKSDYIAAKVARLNESLGGN | not soluble
12 | GMNPENWLLLRRVVRFGDTDAAGVMHFHQLFRWCHESWEESLESYGLNPADIFPGSRKSEVTPEVALPIIHCQADFRRPIHTGDALAMELRPERLNPNSFQVHFEFRCEEQIAAHALIRHLAINAQTRHRCALPEGIDRWLEASGVGKIGSI | soluble
13 | MGSDKIHHHHHHMSEESIIVVGGGIAGLTGAALLSKEGYQVTLVEAHSQLGGCAGTFKRGSYTFDVGATQVAGLERGGIHHRLFNYLDIPLPDAKILDPGCSVTLGDGSRPINLWHDPLRWQKERQEQFPGSEIFWSLCSKIHESNWEFVERDPILPVRNFWDLSQLIRAIRPSNLLTGFLSKLTIADLLTITGCHKDRRLRSFLDLQLKLYSQEPASRTAALYGATVLQMAQSPRGLWHLHGSMQILSDLLKDSFLRDGGSLLIGHRVTKIIRKENSNVFDVKVLDRRKNLLQMKASDIVFSLPPQSLLDLIPIDGGLSTTYRESIKKLPKPSGAVVFYGALRRVDLPVDCPGHIQVFDEHFGSLFISISLENDQRAPIGMATLIASVFVDIDQWSNLDSQAYTRKKSVVSKQIRAILDHKFDLLETSWDHQELSTPRSFERWTGRPSGIVGGLGQHPDQFGPFGLSSRTPLKGLWLCGDSIYPGEGTAGVSQSALMVVRQLLESKGRHLNIPVFN | not soluble
14 | MFKAIVSAATLRDALDSVSVLVDECKIRLNEESLSIRAVDPANVGMVDLTLDAAAFESYEAHGGVIGVNLSRLEEVAGMAGAGDLIHLTLDEETRKLNIRIDGLSYTLALIDPDSIRQEPDIPDLDLAANIVLEGTHLDRGIKAADMVSDHIRLRVDGAEETFHIEAEGDTDDVDLSLPPADLISIEAGAADSLFSLDYLKDMNKAIPTDAEVTVELGEEFPVKLHYQIAEGMGTITYMLAPRIQSD | soluble
15 | MANQHANHSINDFKQFVKKHPKLIKEVRKEQRSWQDVYENWVLFGESDPIWDPYREPEEASEAVPETPQKNDFVSKMVTAVKKMDVNQMNEQINKMSQSISSLQSLLNTFSGSGQKHSQPGSGQHPFSFRKDLEHHHHHH | soluble
16 | IHNSRWIMTPEVKEDCKMRLFCLPFAGGGALAYRSWCRYMPPEIELCAVQLPGRENRIKDEKFYDINLLIDELVLQILPYLDKPFALYGHSMGGLISFELARRIRKVKGLTPKILFFSGSKAPQLYDHTKDISHLPDELFLKAIKSFNGMPDMFWQDRELIEFKLPTLRADFSVLEGYNYYNEEPLECPISALCGENDKIISKKDMEALALQTKNQFKLRMFDGDHFFINTCRSKVLKSIIEDLN | not soluble
17 | MGHHHHHHHHHHSSGHIDDDDKHMYTKIIGTGSYLPEQVRTNADLEKMVDTSDEWIVTRTGIRERHIAAPNETVSTMGFEAATRAIEMAGIEKDQIGLIVVATTSATHAFPSAACQIQSMLGIKGCPAFDVAAACAGFTYALSVADQYVKSGAVKYALVVGSDVLARTCDPTDRGTIIIFGDGAGAAVLAASEEPGIISTHLHADGSYGELLTLPNADRVNPENSIHLTMAGNEVFKVAVTELAHIVDETLAANNLDRSQLDWLVPHQANLRIISATAKKLGMSMDNVVVTLDRHGNTSAASVPCALDEAVRDGRIKPGQLVLLEAFGGGFTWGSALVRF | soluble
18 | MAHHHHHHMEDAQSGRASFSLRVPLCELLPKDSSLTDSPQNAVNLLYTICFSNTELKLRMKVTNTSEEQSAPFQFAFHTYFAVSDVSRTVVSGVNRSPFVDNCKARGNPDAPPSPPEQLWIIRGEHDRVYPDQACAIVLQDMGAKTTLQISSPNLSDVCLWNPGESKCAAMKDMPPDGYKHFVCVEHGKMLKKVVVPPCSSWTGTQEIAIIAESPHESSI | not soluble
19 | MMVTFGEPGVYSSYSNPLPSTDTWEDCLEYCLGLSTCVAVYNNNCQMFEIGQISTATSTSETKIAFKFLADNATCPIQEPTSLQGHYFTNTTYQPYTVSYSAPTWTFANSTQLECPTNYALFVRDLGPWCMKVIQHYACCNKTIAATMCNSYGAQLSGLDSTAEYDFMLAGSWPIFKNVTTNKIGSTQYYATGVWVDGARTLACMGNTTYPCNTTQAFSFTDPTLSSPPGGYLWLPGRPDGGDAPADGIVLNLYTTELYGMEDTPSSEPVSGVYCWMGYLCGAVPT | not soluble
20 | GHMEDFWVQYGDEMLPVIGDFPRKGDYLPSFMLVDDQKHDAALESFSHTPKLIVTLLSVDEDEHAGLLLLRETRRFLDSWPHLKLIVITVDSPSSLARARHEHGLPNIALLSTLRGRDFHKRYGVLITEYPLSGYTSPAIILADAANVVHYSERLANTRDFFDFDAIEKLLQEGEQQAMAAEREAAEARQEQDAEREKGTERLLEKAKLIQDQLNRNGDPGRGS | soluble
21 | MTDYGDADKYVNDESIEMAWAIKAGERSEVHMNLIMRCDTRVLRLNKHQDAILAAFRSSFPDLNVEEVTTSLLKDGGAKETWREFCEQFKDIVDDYSMGTLMRIHASKAYSPENTVVVPRIIYLAIEMARNVEGVNEKNKEAYTAHRNSLASL | soluble
22 | TPLSLTLDHWSEIRSRAHNLSVEIKKGPWRTFCASEWPTFDVGWPPEGTFDLTVIFEVKAIVFQDGPGSHPDQQPYITVWQDLVQNSPPWIK | soluble
23 | MGNQSTSSKGSDTKKEQITVKHQLDKNGTKVPKNPKKVVVFDFGSLDTLDKLGLDDIVAGLPKQVLPKYLSKFKDDKYADVGSLKEPDFDKVAELDPDLIIISARQSESYKEFSKIAPTIYLGVDTAKYMESFKSDAETIGKIFDKEDKVKDELANIDHSIADVKKTAEKLNKNGLVIMANDGKISAFGPKSRYGLIHDVFGVAPADQNIKASTHGQSVSYEYISKTNPDYLFVIDRGTAIGETSSTKQVVENDYVKNVNAVKNGHVIYLDSATWYLSGGGLESMTQMIKEVKDGLEKLEHHHHHH | soluble
